Test results taken from the supplement of paper PMC10567573.

B1: VPS39 (parent)
chain: ITEEKVCMVCKKKIGNSAFARYPN

Variants of: B1
Test: protein stability index of a GFP-peptide fusion (GPS, HEK-293T) (PSI 1-6); higher = more stable
Settings: c terminus: a fixed tail appended
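Also: lentivirally expressed fusions sorted by FACS into six bins by GFP to DsRed ratio, PSI derived from sequencing read proportions per bin multiplied by bin number.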

Row | Variant | protein stability index
1 | ITEEKVCMVGKKKIGNSAFARYPN | 4.21
2 | ITEEKVCMVHKKKIGNSAFARYPN | 3.32
3 | ITEEKVCMVIKKKIGNSAFARYPN | 2.45
4 | ITEEKVCMVKKKKIGNSAFARYPN | 2.77
5 | ITEEKVCMVLKKKIGNSAFARYPN | 2.38
6 | ITEEKVCMVMKKKIGNSAFARYPN | 2.94
7 | ITEEKVCMVNKKKIGNSAFARYPN | 4.14
8 | ITEEKVCMVPKKKIGNSAFARYPN | 3.97
9 | ITEEKVCMVRKKKIGNSAFARYPN | 3.96
10 | ITEEKVCMVSKKKIGNSAFARYPN | 4.14
11 | ITEEKVCMVVKKKIGNSAFARYPN | 2.84
12 | ITEEKVCMVWKKKIGNSAFARYPN | 2.59
13 | ITEEKVCMVYKKKIGNSAFARYPN | 2.64
14 | ITEEKVCMVCAKKIGNSAFARYPN | 2.19
15 | ITEEKVCMVCCKKIGNSAFARYPN | 1.42
16 | ITEEKVCMVCDKKIGNSAFARYPN | 3.21
17 | ITEEKVCMVCEKKIGNSAFARYPN | 2.75
18 | ITEEKVCMVCFKKIGNSAFARYPN | 1.54
19 | ITEEKVCMVCGKKIGNSAFARYPN | 2.58
20 | ITEEKVCMVCHKKIGNSAFARYPN | 1.74
21 | ITEEKVCMVCIKKIGNSAFARYPN | 1.85
22 | ITEEKVCMVCLKKIGNSAFARYPN | 1.42
23 | ITEEKVCMVCMKKIGNSAFARYPN | 1.66
24 | ITEEKVCMVCNKKIGNSAFARYPN | 1.81

Row | Variant | protein stability index
25 | ITEEKVCMVCPKKIGNSAFARYPN | 2.76
26 | ITEEKVCMVCQKKIGNSAFARYPN | 2.29
27 | ITEEKVCMVCRKKIGNSAFARYPN | 1.98
28 | ITEEKVCMVCSKKIGNSAFARYPN | 1.7
29 | ITEEKVCMVCTKKIGNSAFARYPN | 2.2
30 | ITEEKVCMVCVKKIGNSAFARYPN | 2.23
31 | ITEEKVCMVCWKKIGNSAFARYPN | 1.69
32 | ITEEKVCMVCYKKIGNSAFARYPN | 2.12
33 | ITEEKVCMVCKAKIGNSAFARYPN | 2.28
34 | ITEEKVCMVCKCKIGNSAFARYPN | 2.93
35 | ITEEKVCMVCKDKIGNSAFARYPN | 2.63
36 | ITEEKVCMVCKEKIGNSAFARYPN | 2.46
37 | ITEEKVCMVCKFKIGNSAFARYPN | 1.68
38 | ITEEKVCMVCKGKIGNSAFARYPN | 1.97
39 | ITEEKVCMVCKHKIGNSAFARYPN | 2.28
40 | ITEEKVCMVCKLKIGNSAFARYPN | 1.3
41 | ITEEKVCMVCKMKIGNSAFARYPN | 1.64
42 | ITEEKVCMVCKNKIGNSAFARYPN | 2.8
43 | ITEEKVCMVCKPKIGNSAFARYPN | 2.25
44 | ITEEKVCMVCKQKIGNSAFARYPN | 2.25
45 | ITEEKVCMVCKRKIGNSAFARYPN | 1.83
46 | ITEEKVCMVCKSKIGNSAFARYPN | 2.36
47 | ITEEKVCMVCKTKIGNSAFARYPN | 1.77
48 | ITEEKVCMVCKVKIGNSAFARYPN | 1.74

Row | Variant | protein stability index
49 | ITEEKVCMVCKWKIGNSAFARYPN | 2.18
50 | ITEEKVCMVCKYKIGNSAFARYPN | 1.88
51 | ITEEKVCMVCKKAIGNSAFARYPN | 1.7
52 | ITEEKVCMVCKKCIGNSAFARYPN | 2.01
53 | ITEEKVCMVCKKDIGNSAFARYPN | 2.73
54 | ITEEKVCMVCKKEIGNSAFARYPN | 3.04
55 | ITEEKVCMVCKKFIGNSAFARYPN | 2.28
56 | ITEEKVCMVCKKGIGNSAFARYPN | 1.35
57 | ITEEKVCMVCKKHIGNSAFARYPN | 2.01
58 | ITEEKVCMVCKKIIGNSAFARYPN | 2.02
59 | ITEEKVCMVCKKLIGNSAFARYPN | 1.64
60 | ITEEKVCMVCKKMIGNSAFARYPN | 2.07
61 | ITEEKVCMVCKKNIGNSAFARYPN | 2.33
62 | ITEEKVCMVCKKPIGNSAFARYPN | 2.27
63 | ITEEKVCMVCKKQIGNSAFARYPN | 2.6
64 | ITEEKVCMVCKKRIGNSAFARYPN | 2.29
65 | ITEEKVCMVCKKSIGNSAFARYPN | 2.36
66 | ITEEKVCMVCKKTIGNSAFARYPN | 1.83
67 | ITEEKVCMVCKKVIGNSAFARYPN | 1.98
68 | ITEEKVCMVCKKWIGNSAFARYPN | 1.52
69 | ITEEKVCMVCKKYIGNSAFARYPN | 2.11
70 | ITEEKVCMVCKKKAGNSAFARYPN | 2.56
71 | ITEEKVCMVCKKKCGNSAFARYPN | 2.5
72 | ITEEKVCMVCKKKDGNSAFARYPN | 3.48

Row | Variant | protein stability index
73 | ITEEKVCMVCKKKEGNSAFARYPN | 2.85
74 | ITEEKVCMVCKKKFGNSAFARYPN | 2.87
75 | ITEEKVCMVCKKKGGNSAFARYPN | 2.3
76 | ITEEKVCMVCKKKHGNSAFARYPN | 4.23
77 | ITEEKVCMVCKKKKGNSAFARYPN | 2.49
78 | ITEEKVCMVCKKKLGNSAFARYPN | 2.41
79 | ITEEKVCMVCKKKMGNSAFARYPN | 3
80 | ITEEKVCMVCKKKNGNSAFARYPN | 2.38
81 | ITEEKVCMVCKKKPGNSAFARYPN | 2.64
82 | ITEEKVCMVCKKKQGNSAFARYPN | 2.14
83 | ITEEKVCMVCKKKRGNSAFARYPN | 2.67
84 | ITEEKVCMVCKKKSGNSAFARYPN | 3.36
85 | ITEEKVCMVCKKKTGNSAFARYPN | 3.06
86 | ITEEKVCMVCKKKVGNSAFARYPN | 1.79
87 | ITEEKVCMVCKKKWGNSAFARYPN | 2.1
88 | ITEEKVCMVCKKKYGNSAFARYPN | 2.66
89 | ITEEKVCMVCKKKIANSAFARYPN | 1.39
90 | ITEEKVCMVCKKKICNSAFARYPN | 2.98
91 | ITEEKVCMVCKKKIDNSAFARYPN | 2.46
92 | ITEEKVCMVCKKKIENSAFARYPN | 2.78
93 | ITEEKVCMVCKKKIFNSAFARYPN | 2.35
94 | ITEEKVCMVCKKKIHNSAFARYPN | 2.02
95 | ITEEKVCMVCKKKIINSAFARYPN | 2.8
96 | ITEEKVCMVCKKKIKNSAFARYPN | 2.55

Row | Variant | protein stability index
97 | ITEEKVCMVCKKKILNSAFARYPN | 2.31
98 | ITEEKVCMVCKKKIMNSAFARYPN | 2.23
99 | ITEEKVCMVCKKKINNSAFARYPN | 2.37
100 | ITEEKVCMVCKKKIPNSAFARYPN | 2.45
101 | ITEEKVCMVCKKKIQNSAFARYPN | 2.99
102 | ITEEKVCMVCKKKIRNSAFARYPN | 2.34
103 | ITEEKVCMVCKKKISNSAFARYPN | 2.54
104 | ITEEKVCMVCKKKITNSAFARYPN | 2.81
105 | ITEEKVCMVCKKKIVNSAFARYPN | 2.86
106 | ITEEKVCMVCKKKIWNSAFARYPN | 2.35
107 | ITEEKVCMVCKKKIYNSAFARYPN | 2
108 | ITEEKVCMVCKKKIGASAFARYPN | 2.42
109 | ITEEKVCMVCKKKIGCSAFARYPN | 2.8
110 | ITEEKVCMVCKKKIGDSAFARYPN | 2.62
111 | ITEEKVCMVCKKKIGESAFARYPN | 2.48
112 | ITEEKVCMVCKKKIGFSAFARYPN | 1.58
113 | ITEEKVCMVCKKKIGGSAFARYPN | 3.01
114 | ITEEKVCMVCKKKIGHSAFARYPN | 2.48
115 | ITEEKVCMVCKKKIGISAFARYPN | 2.02
116 | ITEEKVCMVCKKKIGKSAFARYPN | 2.34
117 | ITEEKVCMVCKKKIGLSAFARYPN | 2.05
118 | ITEEKVCMVCKKKIGMSAFARYPN | 1.54
119 | ITEEKVCMVCKKKIGPSAFARYPN | 2.81
120 | ITEEKVCMVCKKKIGQSAFARYPN | 3.01

Row | Variant | protein stability index
121 | ITEEKVCMVCKKKIGRSAFARYPN | 2.29
122 | ITEEKVCMVCKKKIGSSAFARYPN | 2.35
123 | ITEEKVCMVCKKKIGTSAFARYPN | 2.77
124 | ITEEKVCMVCKKKIGVSAFARYPN | 2.37
125 | ITEEKVCMVCKKKIGWSAFARYPN | 2.08
126 | ITEEKVCMVCKKKIGYSAFARYPN | 2.1
127 | ITEEKVCMVCKKKIGNAAFARYPN | 2.19
128 | ITEEKVCMVCKKKIGNCAFARYPN | 2.67
129 | ITEEKVCMVCKKKIGNDAFARYPN | 2.78
130 | ITEEKVCMVCKKKIGNEAFARYPN | 3.4
131 | ITEEKVCMVCKKKIGNFAFARYPN | 2.18
132 | ITEEKVCMVCKKKIGNGAFARYPN | 2.52
133 | ITEEKVCMVCKKKIGNHAFARYPN | 2.54
134 | ITEEKVCMVCKKKIGNIAFARYPN | 3.04
135 | ITEEKVCMVCKKKIGNKAFARYPN | 2.1
136 | ITEEKVCMVCKKKIGNLAFARYPN | 2.07
137 | ITEEKVCMVCKKKIGNMAFARYPN | 2.3
138 | ITEEKVCMVCKKKIGNNAFARYPN | 2.17
139 | ITEEKVCMVCKKKIGNPAFARYPN | 2.47
140 | ITEEKVCMVCKKKIGNQAFARYPN | 3.1
141 | ITEEKVCMVCKKKIGNRAFARYPN | 2.62
142 | ITEEKVCMVCKKKIGNTAFARYPN | 2.11
143 | ITEEKVCMVCKKKIGNVAFARYPN | 3.12
144 | ITEEKVCMVCKKKIGNWAFARYPN | 2.14

Row | Variant | protein stability index
145 | ITEEKVCMVCKKKIGNYAFARYPN | 2.08
146 | ITEEKVCMVCKKKIGNSCFARYPN | 2.37
147 | ITEEKVCMVCKKKIGNSDFARYPN | 3.65
148 | ITEEKVCMVCKKKIGNSEFARYPN | 3.2
149 | ITEEKVCMVCKKKIGNSFFARYPN | 2.15
150 | ITEEKVCMVCKKKIGNSGFARYPN | 3.02
151 | ITEEKVCMVCKKKIGNSHFARYPN | 2.73
152 | ITEEKVCMVCKKKIGNSIFARYPN | 1.81
153 | ITEEKVCMVCKKKIGNSKFARYPN | 2.4
154 | ITEEKVCMVCKKKIGNSLFARYPN | 2.4
155 | ITEEKVCMVCKKKIGNSMFARYPN | 2.34
156 | ITEEKVCMVCKKKIGNSNFARYPN | 2.99
157 | ITEEKVCMVCKKKIGNSPFARYPN | 2.19
158 | ITEEKVCMVCKKKIGNSQFARYPN | 2.41
159 | ITEEKVCMVCKKKIGNSRFARYPN | 2.26
160 | ITEEKVCMVCKKKIGNSSFARYPN | 3.04
161 | ITEEKVCMVCKKKIGNSTFARYPN | 2.52
162 | ITEEKVCMVCKKKIGNSVFARYPN | 2
163 | ITEEKVCMVCKKKIGNSWFARYPN | 2.08
164 | ITEEKVCMVCKKKIGNSYFARYPN | 1.89
165 | ITEEKVCMVCKKKIGNSAAARYPN | 3.58
166 | ITEEKVCMVCKKKIGNSACARYPN | 3.52
167 | ITEEKVCMVCKKKIGNSADARYPN | 4.58
168 | ITEEKVCMVCKKKIGNSAEARYPN | 3.62

Row | Variant | protein stability index
169 | ITEEKVCMVCKKKIGNSAGARYPN | 3.29
170 | ITEEKVCMVCKKKIGNSAHARYPN | 2.89
171 | ITEEKVCMVCKKKIGNSAIARYPN | 2.82
172 | ITEEKVCMVCKKKIGNSAKARYPN | 3.55
173 | ITEEKVCMVCKKKIGNSALARYPN | 2.28
174 | ITEEKVCMVCKKKIGNSAMARYPN | 2.39
175 | ITEEKVCMVCKKKIGNSANARYPN | 2.69
176 | ITEEKVCMVCKKKIGNSAPARYPN | 3.14
177 | ITEEKVCMVCKKKIGNSAQARYPN | 3.58
178 | ITEEKVCMVCKKKIGNSARARYPN | 2.91
179 | ITEEKVCMVCKKKIGNSASARYPN | 2.56
180 | ITEEKVCMVCKKKIGNSATARYPN | 3.58
181 | ITEEKVCMVCKKKIGNSAVARYPN | 3.27
182 | ITEEKVCMVCKKKIGNSAWARYPN | 2.34
183 | ITEEKVCMVCKKKIGNSAYARYPN | 3.06
184 | ITEEKVCMVCKKKIGNSAFCRYPN | 2.56
185 | ITEEKVCMVCKKKIGNSAFDRYPN | 2.62
186 | ITEEKVCMVCKKKIGNSAFERYPN | 2.11
187 | ITEEKVCMVCKKKIGNSAFFRYPN | 2.34
188 | ITEEKVCMVCKKKIGNSAFGRYPN | 2.05
